Measured values reported in patent US20040198650A1, “Means for inhibiting proteolytical processing of parkin” (priority 2001, published 2004).
Where a chain is given by its changes, count along the chain named. In names and notes the source's numbering stands. Entries after “also recorded” stand apart in the source; their conditions may differ.

Assays:
[1] = tested on: K3-CHO and Park8-SH-SY5Y cells expressing human Parkin; experiment: Parkin cleavage during cellular apoptosis, induction verified by PARP immunoblot, in Parkin expressing cell lines; format: cell-based
From the text: Parkin cleavage during cellular apoptosis. […] Lanes 1-4, 6 were probed with T160, lane 5 with PAR-N1 and lane 7 with PAR-C1. The molecular weight is indicated to the left for Parkin (51 kDa) and the Parkin peptides (38 kDa and 11,5 kDa, respectively). The induction of apoptosis was verified biochemically by testing the binding of the same membranes with the mouse monoclonal poly-ADP-ribose (PARP) antibody 66401 A (Pharmigen). […] The generation of the 86 kDa PARP fragment is a recognised marker for apoptosis associated proteolysis.
The stably transfected Parkin expressing cell lines, K3-CHO (FIG. 3, lanes 1-5) and Park8-SH-SY5Y (FIG. 3, lanes 6, 7) were extracted and prepared for immunoblotting as described in example 2. […] FIG. 3, lanes 1-4, 6 were probed with T160, lane 5 with PAR-N1 and lane 7 with PAR-C1 antibodies. The molecular weight is indicated to the left for Parkin (51 kDa) and the Parkin peptides (38 kDa and 11,5 kDa, respectively). […]

[2] = tested on: apoptosis-associated Parkin cleavage in K3 CHO cells expressing human Parkin; experiment: Caspase inhibitors on okadaic acid-induced, apoptosis-associated Parkin cleavage in K3 CHO cells (T160 immunoblot); format: cell-based, Chinese hamster; conditions: 10 microM inhibitor, 200 nM okadaic acid for 16 h
Description: K3 CHO cells were treated with 200 nM okadaic acid for 16 h (lanes 2-4) in the presence of 10 microM of the caspase inhibitors YVAD-chloromethylketone (lane 3) and DEVD-chloromethylketone (lane 4). The control cells treated with the DMSO used for solubilising the caspase inhibitors are shown in lane 2. Lane 1 represents non-treated control cells. […] Similar data was obtained in the Park8 SH-SY5Y cells.
The parental cell lines and the Parkin expressing cell lines were extracted in 8 M urea, 1% Triton X 100.20 microgram protein was supplemented to 2% sodium dodecylsulphate, 20 mM dithioerythreitol, 20 mM Tris, pH 6.5, 20% glycerol, heated to 95° C. for 5 min, whereafter the mixture was resolved by 10-20% gradient sodium dodecylsulphate polyacrylamide gelelectrophoresis. The proteins in the gel were electroblotted onto a nitrocellulose membrane and non-specific protein binding was blocked by incubating the membrane in block solution (20 mM Tris, pH 7.4, 130 mM NaCl, 0.5% Triton X100, 5% skimmed milk powder) for 2 hours. The membrane was subsequently incubated with primary antibody (PAR-N1, PAR-C1 and T160 diluted 1/500 in block solution) for 2 hours, rinsed in 20 mM Tris, pH 7.4, 130 mM NaCl, 0.5% Triton X100 and incubated with a second antibody (horse radish peroxidase conjugated swine anti rabbit serum) for 1 hour and rinsed. The bound antibody was then visualised by chemilumenescense according to the manufacturers recommendation (ECL, Amersham Pharmacia Biotech). FIG. 2 panel B, lanes 1 and 5 represent the non-transfected CHO and SH-SY5Y cell lines, respectively. FIG. 2, panel B, lanes 24 represents Parkin expressing CHO cells K3 and lane 6 represents the Parkin expressing SH-SY5Y cell Park 8. Lanes 1, 2, 5 and 6 were incubated with T160, lane 3 with PAR-Ni and lane 4 with PAR-C1. The molecular size marker is indicated to the left in kDa.
K3-CHO cells were treated with 200 nM okadaic acid for 16 h prior to extraction and processing for T160 immunoblot as described in example 2. […]

[3] = tested on: apoptosis-associated (caspase) cleavage of human Parkin; experiment: Site directed mutagenesis of Parkin Asp residues: apoptosis-associated cleavage in stably transfected CHO and SH-SY5Y cell lines (T160 immunoblot); format: cell-based; conditions: 200 nanoM okadaic acid for 16 h
From the text: Site directed mutagenesis of […] 126 in parkin to a glutamate residue reduce the apoptosis associated cleavage of parkin. Caspases are proteinases that always cleave after an Asp residue and FIG. 3 indicated the cleavage takes place within the N-terminal 150 amino acid residues. We mutagenised the parkin expression vector to express human parkin where the Asp in the positions 86 plus 87,106, 115, 126 and 130 were substituted with and Glu. CHO and SHSY5Y cell lines were stably transfected with the expression vectors and used for testing the effect of the mutations on apoptosis-associated parkin cleavage. These cells and the cell lines expressing the normal Parkin were treated with 200 nanoM okadaic acid for 16 h and extracted for T160 immunoblotting. The CHO cell lines are represented in lanes 1-6 and the SH-SY5Y cell lines in lanes 7-12. Wild type Parkin is represented in lanes 1, 2, 7, 8; D126E in lanes 3, 4, 9, 10; D130E in lanes 5, 6, 11, 12. Lanes 1, 3, 5, 7, 9, 11 represent untreated cells and lanes 2, 4, 6, 8, 10, 12 represent okadaic treated cells. The positions of the 51 kDa and 38 kDa Parkin proteins are indicated by the upper and lower left arrows.
Caspases are proteinases that always cleave after an Asp residue. Cell lines were generated where Asp residues were changed to Glu residues to test if this amino acid position might represent the caspase cleavage sites. The Parkin expression vector used for generating the Parkin expressing K3 CHO and Park8 SH-SY5Y cell lines was changed by PCR mediated site directed mutagenesis so the nucleotide No.479 was changed from a cytosine to an adenine (ParkinD126E). The cDNA encoding Parkin was kindly provided by Dr. Mizuno, Juntendo University School of Medicine, Japan. The Parkin cDNA was PCR amplified using the primers: […]
The amplified Parkin cDNA was cloned into the Nhe I and EcoR I site of the pcDNA3.1/Zeo(−) vector and the Parkin cDNA sequence was checked by sequencing. To prepare the D126E mutant, the inventors performed site-directed mutagenesis using the Quickchange Mutagenesis Kit (Stratagene) according to the manufactures instructions. Complementary strands of the oligonucleotide: 5′-[…]-3′ were used for preparing the D126E mutated construct. Parkin vectors containing Parkin mutated for D130E and DD86, 87EE were constructed by analogous techniques. This vector was then transfected into SH-SYSY or CHO cells using FUGENE6 (Boehringer Mannheim) and stably transfected cell lines were selected using 25 microgram Zeocinl ml medium (SH-SY5Y cells) or 300 microgram Zeocin/ml medium (CHO cells). The sequences of the vectors were verified by DNA sequencing. The expression vectors were used to generate the stably transfected DD86, 87EE, D126E and D130E CHO and SH-SY5Y cell lines expressing Parkin protein with the indicated substitutions of amino acids. These cells and the cell lines expressing the normal Parkin were treated with 200 nanoM okadaic acid for 16 h and extracted for T160 immunoblotting. The CHO cell lines are represented in lanes FIG. 5, 1-6 and the SH-SY5Y cell lines in lanes 7-12. Wild type Parkin is represented in lanes 1, 2, 7, 8; D126E in lanes 3, 4, 9, 10; D130E in lanes 5, 6, 11, 12. Lanes 1, 3, 5, 7, 9, 11 represent untreated cells and lanes 2, 4, 6, 8, 10, 12 represent okadaic treated cells. The positions of the 51 kDa and 38 kDa Parkin proteins are indicated by the upper and lower left arrows.

[4] = tested on: CHO and SH-SY5Y cell lines; experiment: Cytoprotection against mercaptoethanol-induced unfolded protein stress (DAPI count of dead cells); format: cell-based; conditions: 3 mM mercaptoethanol for 24h
Description: Mercaptoethanol is a known inducer of unfolded protein stress by inhibiting the normal formation of disulfide bonds in the endoplasmic reticulum.
CHO and SH-SY5Y cell lines were cultured expressing wild type Parkin, D126E Parkin and an empty vector with 3 mM mercaptoethanol for 24h. They were stained with DNA binding fluorescent dye DAPI and fixed in ice cold methanol prior to drying.

[5] = tested on: CHO and SH-SY5Y cell lines; conditions: cell death induced by 3 mM mercaptoethanol; Imai et al. 2000, FIG. 4A; cited from earlier work

For CC[C@@]1(O)C(=O)OCc2c1cc1n(c2=O)Cc2cc3ccccc3nc2-1 [campthotecin], the “Induction of apoptosis (generation of caspase 3 generated 86 kDa PARP fragment)” value ([1]; 5 microgram/ml for 30 hours, K3-CHO) was 86 kDa fragment was generated.

For OCCS [mercaptoethanol], the “Parkin cleavage after D126 following induced cell death” value ([1]; T160 immunoblotting as in example 3) was “followed by Parkin cleavage after D126”.

For C=C1[C@@H](O)[C@@H]2O[C@]3(CC[C@H](/C=C/[C@@H](C)[C@@H]4CC(C)=C[C@@]5(O[C@H](C[C@@](C)(O)C(=O)O)CC[C@H]5O)O4)O3)CC[C@H]2O[C@@H]1[C@@H](O)C[C@H](C)[C@H]1O[C@@]2(CCCCO2)CC[C@H]1C [okadaic acid], the “Induction of apoptosis (generation of caspase 3 generated 86 kDa PARP fragment)” value ([1]; 200 nM for 16 hours) was 86 kDa fragment was generated.

In the case of DEVD-chloromethylketone, the “Effect on apoptosis-associated Parkin cleavage (51 kDa Parkin to 38 kDa fragment)” value (from here on “Effect”) [2] is reported as “abrogate the cleavage; also recorded: cleavage is abrogated”.

With YVAD-chloromethylketone the “Effect” value [2] was “cleavage is abrogated” and the “Effect” value ([2]; listed as WAD-chloromethylketone) was “abrogate the cleavage”.

B1: D126E: human Parkin with Asp 126 substituted by Glu (SEQ ID NO: 4) (protein, listed as Homo sapiens)
chain: MIVFVRFNSSHGFPVEVDSDTSIFQLKEVVAKRQGVPADQLRVIFAGKELRNDWTVQNCDLDQQSIVHIVQRPWRKGQEMNATGGDDPRNAAGGCEREPQSLTRVDLSSSVLPGDSVGLAVILHTESRKDSPPAGSPAGRSIYNSFYVYCKGPCQRVQPGKLRVQCSTCRQATLTLTQGPSCWDDVLIPNRMSGECQSPHCPGTSAEFFFKCGAHPTSDKETSVALHLIATNSRNITCITCTDVRSPVLVFQCNSRHVICLDCFHLYCVTRLNDRQFVHDPQLGYSLPCVAGCPNSLIKELHHFRILGEEQYNRYQQYGAEECVLQMGGVLCPRPGCGAGLLPEPDQRKVTCEGGNGLGCGFAFCRECKEAYHEGECSAVFEASGTTTQAYRVDERAAEQARWEAASKETIKKTTKPCPRCHVPVEKNGGCMHMKCPQPQCRLEWCWNCGCEWNRVCMGDHWFDV
modifications: mat_peptide (1)..() Parkin with a D126E mutation
In the case of B1, the “Apoptosis-associated cleavage of mutated Parkin compared to wild type” value [3] is reported as “abrogated the cleavage; also recorded: drastically reduced parkin cleavage” and the “Survival of cells expressing the Parkin variant compared to wild type Parkin” value [4] is reported as “enhanced survival”.

B2: DD86, 87EE: human Parkin double mutant, Asp 86 and 87 substituted by Glu (protein)
chain: B1 chain with D86E, D87E, E126D, S223P
In the case of B2, the “Apoptosis-associated cleavage of mutated Parkin compared to wild type” value [3] is reported as “no significant effect; also recorded: cleavage as the WT parkin”.

B3: Parkin: wild type human Parkin protein (SEQ ID NO: 2) (protein, listed as Homo sapiens)
chain: B1 chain with E126D, S223P
modifications: mat_peptide (1)..() Native Parkin
In the case of B3, the “Protection against cell death by Parkin expression” value [5] is listed as “approximately 50%”.

B4: D130E: human Parkin with Asp 130 substituted by Glu (protein)
chain: B1 chain with E126D, D130E, S223P
For B4, the “Apoptosis-associated cleavage of mutated Parkin compared to wild type” value [3] was “no significant effect; also recorded: cleavage as the WT parkin”.

B5: D105E: human Parkin Asp to Glu mutant (position printed as 105 and 106) (protein)
chain: B1 chain with D106E, E126D, S223P
For B5, the “Apoptosis-associated cleavage of mutated Parkin compared to wild type” value [3] was “cleavage as the WT parkin”.

B6: D115E: human Parkin with Asp 115 substituted by Glu (protein)
chain: B1 chain with D115E, E126D, S223P
For B6, the “Apoptosis-associated cleavage of mutated Parkin compared to wild type” value [3] was “cleavage as the WT parkin”.
